Experimental data taken from US20240116985A1 (published 2024).
Starred links: 1 amine or outer side, 2 acyl side, 3 side chain; linkers in the order of their positions; H or OH if unused. Positions of bridges follow the written chain, without caps; N, C: chain ends. Non-standard residues stand in square brackets, D forms with d. Primed or numbered codes have the meaning given here. (Me2NPrPip)GlnR = (S)-2-amino-5-(4-(3-(dimethylamino)propyl)piperazin-1-yl)-5-oxopentanoic acid, CN(C)CCCN1CCN(C(=O)CC[C@H](N[*:1])C(=O)[*:2])CC1; PyrS2″ = (S)-3-amino-1-((pent-4-en-1-yloxy)carbonyl)pyrrolidine-3-carboxylic acid (stapling residue), C=CCCCOC(=O)N1CC[C@@](N[*:1])(C(=O)[*:2])C1; (RDMAPyr)GlnR = (S)-2-amino-5-((R)-3-(dimethylamino)pyrrolidin-1-yl)-5-oxopentanoic acid, CN(C)[C@@H]1CCN(C(=O)CC[C@H](N[*:1])C(=O)[*:2])C1; B5(4) = 2,2-bis(4-pentenyl)glycine = 2-amino-2-(pent-4-en-1-yl)hept-6-enoic acid (stitching residue), C=CCCCC(CCCC=C)(N[*:1])C(=O)[*:2]; (4PyPip)GlnR = (S)-2-amino-5-oxo-5-(4-(pyridin-4-yl)piperazin-1-yl)pentanoic acid, O=C(CC[C@H](N[*:1])C(=O)[*:2])N1CCN(c2ccncc2)CC1; TfeGA = (S)-2-amino-3-((carboxymethyl)(2,2,2-trifluoroethyl)amino)propanoic acid, O=C([C@H](CN(CC(=O)[*:3])CC(F)(F)F)N[*:1])[*:2]; (4Pippip)GlnR″ = (S)-5-([1,4'-bipiperidin]-1'-yl)-2-amino-5-oxopentanoic acid, O=C(CC[C@H](N[*:1])C(=O)[*:2])N1CCC(N2CCCCC2)CC1; B5(19) = 2-amino-2-(pent-4-en-1-yl)hept-6-enoic acid (bis(4-pentenyl)glycine), C=CCCCC(CCCC=C)(N[*:1])C(=O)[*:2]; (Ppz)GlnR = (S)-2-amino-5-oxo-5-(piperazin-1-yl)pentanoic acid, O=C(CC[C@H](N[*:1])C(=O)[*:2])N1CCN([*:3])CC1; (Morph)GlnR = (S)-2-amino-5-morpholino-5-oxopentanoic acid, O=C(CC[C@H](N[*:1])C(=O)[*:2])N1CCOCC1; B5(3) = 2,2-bis(4-pentenyl)glycine (stitching residue), C=CCCCC(CCCC=C)(N[*:1])C(=O)[*:2]; GluSH = (S)-2-amino-5-mercapto-5-oxopentanoic acid, O=C(CC[C@H](N[*:1])C(=O)[*:2])S[*:3]; Phe(2-Cl) = N[C@@H](Cc1ccccc1Cl)C(=O)O; Phe(2-OMe) = COc1ccccc1C[C@H](N)C(=O)O; 1Nal = N[C@@H](Cc1cccc2ccccc12)C(=O)O; 2Nal = N[C@@H](Cc1ccc2ccccc2c1)C(=O)O; Bta = N[C@@H](Cc1csc2ccccc12)C(=O)O; αAllylPro = C=CC[C@@]1(C(=O)O)CCCN1; tBuAla = CC(C)(C)C[C@H](N)C(=O)O; 3Thi = N[C@@H](Cc1ccsc1)C(=O)O; Cha = N[C@@H](CC1CCCCC1)C(=O)O; TfeGA″ = not defined here

target: T1, B-cat-Halo (beta-catenin HaloTag NanoBRET construct expressed in HEK293 cells) (UniProt P35222 1-781); test: cell-based or functional assay
T1 sequence (looked up): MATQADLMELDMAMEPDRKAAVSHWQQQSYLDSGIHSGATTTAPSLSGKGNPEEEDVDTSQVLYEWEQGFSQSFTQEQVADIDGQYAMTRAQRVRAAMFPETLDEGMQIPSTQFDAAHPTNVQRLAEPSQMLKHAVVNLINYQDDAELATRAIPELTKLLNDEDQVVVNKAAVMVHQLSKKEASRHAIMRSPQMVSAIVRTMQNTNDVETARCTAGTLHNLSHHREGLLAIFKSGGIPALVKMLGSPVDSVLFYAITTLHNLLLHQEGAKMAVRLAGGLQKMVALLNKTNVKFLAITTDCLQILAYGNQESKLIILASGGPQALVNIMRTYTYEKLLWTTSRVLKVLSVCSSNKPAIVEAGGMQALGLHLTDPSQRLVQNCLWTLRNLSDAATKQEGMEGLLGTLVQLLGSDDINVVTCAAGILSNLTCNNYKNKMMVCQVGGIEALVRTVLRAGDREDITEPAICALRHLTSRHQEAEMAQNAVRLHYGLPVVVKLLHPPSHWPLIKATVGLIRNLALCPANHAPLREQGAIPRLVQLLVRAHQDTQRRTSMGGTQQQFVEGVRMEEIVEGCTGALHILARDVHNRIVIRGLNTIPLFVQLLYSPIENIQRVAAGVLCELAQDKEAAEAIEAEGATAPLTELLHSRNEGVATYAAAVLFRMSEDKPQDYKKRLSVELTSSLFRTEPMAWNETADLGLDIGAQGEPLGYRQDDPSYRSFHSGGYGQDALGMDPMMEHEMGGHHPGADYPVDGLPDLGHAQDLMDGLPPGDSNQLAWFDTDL

| NanoBRET Abs IC50 | Binder |
| --- | --- |
| 15.7 µM | Ac-[αAllylPro]D[tBuAla][B5(19)]D[TfeGA]AAF[(Me2NPrPip)GlnR][PyrS2″][3Thi][Bta]Q-NH2 (staple 1-4, 4-11) [I-1936] |
| 30 µM | Ac-[αAllylPro]D[tBuAla][B5(19)]D[TfeGA]AAF[(4PyPip)GlnR][PyrS2″][3Thi][Bta]Q-NH2 (staple 1-4, 4-11) [I-1938] |
| 20.7 µM | Ac-[αAllylPro]D[tBuAla][B5(19)]D[TfeGA]AAF[(RDMAPyr)GlnR][PyrS2″][3Thi][Bta]Q-NH2 (staple 1-4, 4-11) [I-1939] |
| 15.4 µM | Ac-[αAllylPro]D[tBuAla][B5(19)]D[TfeGA]AAF[(4Pippip)GlnR″][PyrS2″][3Thi][Bta]Q-NH2 (staple 1-4, 4-11) [I-1940] |
| 12.9 µM | Ac-[αAllylPro]D[tBuAla][B5(19)]D[TfeGA]AAF[(Ppz)GlnR][PyrS2″][3Thi][Bta]Q-NH2 (staple 1-4, 4-11) [I-1941] |
| 7.9 µM | Ac-[αAllylPro]D[tBuAla][B5(4)]D[TfeGA″]AAF[(NHBn)GlnR][PyrS2″][3Thi][Bta]Q-NH2 (staple 1-4, 4-11; reading uncertain) [I-1942] |
| 3.8 µM | Ac-[αAllylPro]D[tBuAla][B5(4)]D[TfeGA]AAF[(Morph)GlnR][PyrS2″][3Thi][Bta]Q-NH2 (staple 1-4, 4-11) [I-1943] |
| 28.5 µM | Ac-[αAllylPro]D[tBuAla][B5(4)]D[GluSH]AAFL[PyrS2″][3Thi][Bta]Q-NH2 (staple 1-4, 4-11; also: isomer composition, later eluting HPLC peak) [I-1949] |

target: T2, B-cat-Halo (beta-catenin HaloTag fusion construct expressed in HEK293 cells) (UniProt P35222 1-781); test: cell-based or functional assay
T2 sequence (looked up): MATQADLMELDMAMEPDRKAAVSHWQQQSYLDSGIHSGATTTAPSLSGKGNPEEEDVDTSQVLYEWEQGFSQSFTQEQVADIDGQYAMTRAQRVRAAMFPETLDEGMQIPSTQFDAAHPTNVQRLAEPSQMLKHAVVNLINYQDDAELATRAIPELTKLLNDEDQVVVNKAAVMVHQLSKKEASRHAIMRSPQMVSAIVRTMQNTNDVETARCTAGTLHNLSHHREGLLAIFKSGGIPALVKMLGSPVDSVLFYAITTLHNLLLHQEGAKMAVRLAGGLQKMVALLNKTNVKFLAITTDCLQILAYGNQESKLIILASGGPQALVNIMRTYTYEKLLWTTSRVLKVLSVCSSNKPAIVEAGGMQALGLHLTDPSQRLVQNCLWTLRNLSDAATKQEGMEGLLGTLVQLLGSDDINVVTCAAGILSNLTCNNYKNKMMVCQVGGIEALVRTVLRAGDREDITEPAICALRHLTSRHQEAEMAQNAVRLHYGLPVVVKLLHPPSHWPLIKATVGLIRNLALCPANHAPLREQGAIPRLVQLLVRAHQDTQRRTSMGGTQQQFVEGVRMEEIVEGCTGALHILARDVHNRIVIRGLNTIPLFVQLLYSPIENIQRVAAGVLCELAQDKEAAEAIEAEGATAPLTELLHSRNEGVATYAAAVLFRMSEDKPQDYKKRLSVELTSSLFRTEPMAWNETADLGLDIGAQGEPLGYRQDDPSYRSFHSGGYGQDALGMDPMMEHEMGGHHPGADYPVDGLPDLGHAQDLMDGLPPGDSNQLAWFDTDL

| NanoBRET Abs IC50 | Binder |
| --- | --- |
| 16.7 µM | Ac-[αAllylPro]D[tBuAla][B5(3)]DDAAFS[PyrS2″][Phe(2-OMe)][Bta]S-NH2 (staple 1-4, 4-11) [I-1103] |
| 17.7 µM | Ac-[αAllylPro]D[Cha][B5(3)]DDAAFS[PyrS2″][Phe(2-OMe)][Bta]S-NH2 (staple 1-4, 4-11) [I-1104] |
| > 20 µM | Ac-[αAllylPro]D[tBuAla][B5(3)]DDAA[Cha]S[PyrS2″]F[Bta]S-NH2 (staple 1-4, 4-11) [I-1105] |
| > 20 µM | Ac-[αAllylPro]D[tBuAla][B5(3)]DDAAFS[PyrS2″][Cha][Bta]S-NH2 (staple 1-4, 4-11) [I-1106] |
| 11.8 µM | Ac-[αAllylPro]D[Cha][B5(3)]DDAAF[Cha][PyrS2″][Phe(2-Cl)][Bta]Q-NH2 (staple 1-4, 4-11) [I-1107] |
| > 20 µM | Ac-[αAllylPro]D[1Nal][B5(3)]DDAAFS[PyrS2″][Phe(2-Cl)][Bta]Q-NH2 (staple 1-4, 4-11) [I-1108] |
| > 20 µM | Ac-[αAllylPro]D[2Nal][B5(3)]DDAAFS[PyrS2″][Phe(2-Cl)][Bta]Q-NH2 (staple 1-4, 4-11) [I-1109] |
| > 20 µM | Ac-[αAllylPro]D[1Nal][B5(3)]DDAAFL[PyrS2″][Phe(2-Cl)][Bta]Q-NH2 (staple 1-4, 4-11) [I-1110] |
| > 20 µM | Ac-[αAllylPro]D[2Nal][B5(3)]DDAAFL[PyrS2″][2C1F][Bta]Q-NH2 (staple 1-4, 4-11) [I-1111] |
| > 20 µM | Ac-[αAllylPro]D[1Nal][B5(3)]DDAAFT[PyrS2″][Phe(2-Cl)][Bta]S-NH2 (staple 1-4, 4-11) [I-1114] |
